# Assay results published in IntAct's records for PubMed 29281743.
# B1: Protein deacetylase HDAC6 (Homo sapiens), Q9UBN7 (parent)
# chain: MTSTGQDSTTTRQRRSRQNPQSPPQDSSVTSKRNIKKGAVPRSIPNLAEVKKKGKMKKLGQAMEEDLIVGLQGMDLNLEAEALAGTGLVLDEQLNEFHCLWDDSFPEGPERLHAIKEQLIQEGLLDRCVSFQARFAEKEELMLVHSLEYIDLMETTQYMNEGELRVLADTYDSVYLHPNSYSCACLASGSVLRLVDAVLGAEIRNGMAIIRPPGHHAQHSLMDGYCMFNHVAVAARYAQQKHRIRRVLIVDWDVHHGQGTQFTFDQDPSVLYFSIHRYEQGRFWPHLKASNWSTTGFGQGQGYTINVPWNQVGMRDADYIAAFLHVLLPVALEFQPQLVLVAAGFDALQGDPKGEMAATPAGFAQLTHLLMGLAGGKLILSLEGGYNLRALAEGVSASLHTLLGDPCPMLESPGAPCRSAQASVSCALEALEPFWEVLVRSTETVERDNMEEDNVEESEEEGPWEPPVLPILTWPVLQSRTGLVYDQNMMNHCNLWDSHHPEVPQRILRIMCRLEELGLAGRCLTLTPRPATEAELLTCHSAEYVGHLRATEKMKTRELHRESSNFDSIYICPSTFACAQLATGAACRLVEAVLSGEVLNGAAVVRPPGHHAEQDAACGFCFFNSVAVAARHAQTISGHALRILIVDWDVHHGNGTQHMFEDDPSVLYVSLHRYDHGTFFPMGDEGASSQIGRAAGTGFTVNVAWNGPRMGDADYLAAWHRLVLPIAYEFNPELVLVSAGFDAARGDPLGGCQVSPEGYAHLTHLLMGLASGRIILILEGGYNLTSISESMAACTRSLLGDPPPLLTLPRPPLSGALASITETIQVHRRYWRSLRVMKVEDREGPSSSKLVTKKAPQPAKPRLAERMTTREKKVLEAGMGKVTSASFGEESTPGQTNSETAVVALTQDQPSEAATGGATLAQTISEAAIGGAMLGQTTSEEAVGGATPDQTTSEETVGGAILDQTTSEDAVGGATLGQTTSEEAVGGATLAQTTSEAAMEGATLDQTTSEEAPGGTELIQTPLASSTDHQTPPTSPVQGTTPQISPSTLIGSLRTLELGSESQGASESQAPGEENLLGEAAGGQDMADSMLMQGSRGLTDQAIFYAVTPLPWCPHLVAVCPIPAAGLDVTQPCGDCGTIQENWVCLSCYQVYCGRYINGHMLQHHGNSGHPLVLSYIDLSAWCYYCQAYVHHQALLDVKNIAHQNKFGEDMPHPH
# Variants of: B1
# Conditions: with myd88_human MYD88, Q99836
# myd88_human MYD88, Q99836, sequence (Q99836 whole entry): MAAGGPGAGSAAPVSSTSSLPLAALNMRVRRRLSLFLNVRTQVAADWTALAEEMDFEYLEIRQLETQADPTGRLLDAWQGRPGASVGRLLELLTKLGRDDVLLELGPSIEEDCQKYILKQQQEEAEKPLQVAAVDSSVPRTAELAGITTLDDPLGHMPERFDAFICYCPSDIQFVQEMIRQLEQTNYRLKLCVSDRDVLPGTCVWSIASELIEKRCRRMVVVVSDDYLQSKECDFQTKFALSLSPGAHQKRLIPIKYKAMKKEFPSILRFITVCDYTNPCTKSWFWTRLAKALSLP
row,effect of a mutation on the interaction,Variant
1,with no effect,H216A;H611A
